Sequences and labels used below:
T1: Myc-epsin1 (UniProt O88339 1-575)
T1 sequence (looked up): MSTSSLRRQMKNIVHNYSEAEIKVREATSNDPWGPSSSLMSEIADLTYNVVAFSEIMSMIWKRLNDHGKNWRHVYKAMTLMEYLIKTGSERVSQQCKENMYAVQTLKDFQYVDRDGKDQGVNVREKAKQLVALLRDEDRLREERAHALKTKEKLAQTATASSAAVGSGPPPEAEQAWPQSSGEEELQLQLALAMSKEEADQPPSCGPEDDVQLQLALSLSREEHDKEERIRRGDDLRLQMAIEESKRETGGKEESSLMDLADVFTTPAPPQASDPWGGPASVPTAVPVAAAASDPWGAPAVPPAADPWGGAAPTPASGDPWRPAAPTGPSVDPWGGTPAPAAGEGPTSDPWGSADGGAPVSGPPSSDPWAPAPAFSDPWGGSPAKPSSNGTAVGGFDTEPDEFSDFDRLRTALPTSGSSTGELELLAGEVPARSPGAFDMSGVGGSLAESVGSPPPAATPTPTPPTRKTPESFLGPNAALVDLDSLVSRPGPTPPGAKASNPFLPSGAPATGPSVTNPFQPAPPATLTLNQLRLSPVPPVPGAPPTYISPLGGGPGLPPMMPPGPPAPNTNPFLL

B1: epsin1-Venus (natural protein, rat, UniProt O88339 1-575, looked up)
chain: T1 sequence (looked up)
B2: Dll1 expressed in 293T cells (ligand, UniProt P97677 18-714, looked up)
chain: QVWSSGVFELKLQEFVNKKGLLGNRNCCRGGSGPPCACRTFFRVCLKHYQASVSPEPPCTYGSAVTAVLGVDSFSLPDGAGIDPAFSNPIRFPFGFTWPGTFSLIIEALHTDSPDDLATENPERLISRLTTQRHLTVGEEWSQDLHSSGRTDLRYSYRFVCDEHYYGEGCSVFCRPRDDAFGHFTCGERGEKMCDPGWKGQYCTDPICLPGCDDQHGYCDKPGECKCRVGWQGRYCDECIRYPGCLHGTCQQPWQCNCQEGWGGLFCNQDLNYCTHHKPCRNGATCTNTGQGSYTCSCRPGYTGANCELEVDECAPSPCRNGGSCTDLEDSYSCTCPPGFYGKVCELSAMTCADGPCFNGGRCSDNPDGGYTCHCPAGFSGFNCEKKIDLCSSSPCSNGAKCVDLGNSYLCRCQTGFSGRYCEDNVDDCASSPCANGGTCRDSVNDFSCTCPPGYTGRNCSAPVSRCEHAPCHNGATCHQRGQRYMCECAQGYGGANCQFLLPEPPPDLIVAAQGGSFPWVAVCAGVVLVLLLLLGCAAVVVCVRLKLQKHQPPPDPCGGETETMNNLANCQREKDVSVSIIGATQIKNTNKKADFHGDHGADKSSFKARYPTVDYNLIRDLKGDEATVRDAHSKRDTKCQSQGSVGEEKSTSTLRGGEVPDRKRPESVYSTSKDTKYQSVYVLSAEKDECVIATEV
B3: Delta-like 1 (Dll1) (ligand, UniProt P97677 18-714, looked up)
chain: B2 chain

What all share (assay): co-IP
The target of the assay “Delta-like 1 (Dll1)” is B3.
The target in the next assay is T1, Myc-epsin1.
For the assay “epsin1-Venus”, the target named is B1.

Three molecules from paper PMC3400432 (Developmental Cell, 2012) can be followed below.

As to B1, the “fold increase of the co-IP, cells on N1Fc- against Fc-plates” value with Delta-like 1 (Dll1) turned out to be 1.8 fold.

With B2, the “fold decrease of the co-IP with PAR-1T560A-eGFP” value with Myc-epsin1 worked out at 2 fold. For the molecule B3, the “fold increase of the co-IP, cells on N1Fc- against Fc-coated dishes” value in the assay with epsin1-Venus was 1.9 fold.
